Numbering of substitutions follows the chain as printed.
Legend:
[1] = molecular target: T1, cynomolgus ABCG2 (Macaca fascicularis) (UniProt Q5MB13 1-654); assay: FACS binding to 293T.cG2 cells
T1 chain: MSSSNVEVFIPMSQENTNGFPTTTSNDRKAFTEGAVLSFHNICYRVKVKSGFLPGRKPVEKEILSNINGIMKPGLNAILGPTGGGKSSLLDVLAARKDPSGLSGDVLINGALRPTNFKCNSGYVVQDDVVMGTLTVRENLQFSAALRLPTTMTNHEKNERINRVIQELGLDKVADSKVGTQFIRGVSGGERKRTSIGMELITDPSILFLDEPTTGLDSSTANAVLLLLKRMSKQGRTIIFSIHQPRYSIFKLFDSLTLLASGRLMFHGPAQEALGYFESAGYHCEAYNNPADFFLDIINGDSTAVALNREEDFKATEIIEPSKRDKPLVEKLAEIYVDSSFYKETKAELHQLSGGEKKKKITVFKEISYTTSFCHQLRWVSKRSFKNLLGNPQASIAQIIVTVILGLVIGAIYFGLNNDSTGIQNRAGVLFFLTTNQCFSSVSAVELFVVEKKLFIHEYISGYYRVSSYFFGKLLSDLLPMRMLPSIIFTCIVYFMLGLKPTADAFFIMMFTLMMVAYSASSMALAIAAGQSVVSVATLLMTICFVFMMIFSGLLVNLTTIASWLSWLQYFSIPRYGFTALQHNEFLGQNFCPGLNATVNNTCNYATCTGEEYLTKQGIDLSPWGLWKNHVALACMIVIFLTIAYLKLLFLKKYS

[2] = molecular target: T2, human ABCG2 (UniProt Q9UNQ0 1-655); assay: FACS binding to 293T.hG2 cells
T2 chain: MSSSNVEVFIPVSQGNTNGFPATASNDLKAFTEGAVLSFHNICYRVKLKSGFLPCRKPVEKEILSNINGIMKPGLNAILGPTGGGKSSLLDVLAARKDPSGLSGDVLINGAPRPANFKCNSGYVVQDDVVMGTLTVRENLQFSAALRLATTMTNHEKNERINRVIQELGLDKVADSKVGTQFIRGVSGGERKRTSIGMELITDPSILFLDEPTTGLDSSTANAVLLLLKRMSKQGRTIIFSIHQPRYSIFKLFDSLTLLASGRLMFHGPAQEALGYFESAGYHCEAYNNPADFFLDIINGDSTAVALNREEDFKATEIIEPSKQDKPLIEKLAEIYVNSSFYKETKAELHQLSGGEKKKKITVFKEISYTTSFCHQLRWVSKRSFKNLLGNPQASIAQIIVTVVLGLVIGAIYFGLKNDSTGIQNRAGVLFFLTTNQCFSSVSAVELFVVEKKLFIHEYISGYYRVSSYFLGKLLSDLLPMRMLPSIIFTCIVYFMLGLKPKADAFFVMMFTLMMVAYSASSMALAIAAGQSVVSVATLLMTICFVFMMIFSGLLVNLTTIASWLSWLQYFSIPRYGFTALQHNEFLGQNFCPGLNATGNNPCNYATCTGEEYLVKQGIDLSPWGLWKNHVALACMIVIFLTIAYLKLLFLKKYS

[3] = molecular target: T1, cynomolgus ABCG2 (Macaca fascicularis); assay: FACS binding to 293T cells
[4] = molecular target: T2, human ABCG2; assay: FACS binding to 293T cells
[5] = molecular target: T1, cynomolgus ABCG2 (Macaca fascicularis); assay: cell binding
[6] = molecular target: T2, human ABCG2; assay: cell binding
[7] = molecular target: T1, cynomolgus ABCG2 (Macaca fascicularis); assay: FACS binding to 293T cells
[8] = molecular target: T2, human ABCG2; assay: FACS binding to 293T cells
[9] = molecular target: T2, human ABCG2; assay: FACS cell binding (MFI)
[10] = molecular target: G2_639; assay: FACS binding to 293T cells
[11] = molecular target: G2_418; assay: FACS binding to 293T cells
[12] = molecular target: G2_709; assay: FACS binding to 293T cells
[13] = molecular target: G2_656; assay: FACS binding to 293T cells
[14] = molecular target: G2_336; assay: FACS binding to 293T cells
[15] = molecular target: G2_377; assay: FACS binding to 293T cells
[16] = molecular target: T1, cynomolgus ABCG2 (Macaca fascicularis); assay: FACS binding to 293T cells
[17] = molecular target: T2, human ABCG2; assay: FACS binding to 293T cells
[18] = molecular target: T2, human ABCG2; assay: FACS cell binding
[19] = molecular target: T1, cynomolgus ABCG2 (Macaca fascicularis); assay: FACS binding to 293T cells
[20] = molecular target: T2, human ABCG2; assay: FACS binding to 293T cells

B1: anti-ABCG2 antibody 5D3 (antibody, V domains shown)
VH: QVQLQESGPGLVKPSQSLSLTCTVTGFSITSDYAWNWIRQFPGKKLEWMGYINFDGGTTYNPSLRGRISITRDTSKNQFFLQLRSVTPEDTATYYCATFYGAKGTLDYWGQGTSVTVSS
VL: DIVLTQSPSSFSVSLGDRVTISCKASGYILNRLAWYQQKPGNAPRLLISGATSLETGFPSRFSGTGSGKDYTLSISSLQTEDVGTYYCQQYWSTPWTFGGGTKLEIK
Kd [1]: 0.0992 µM | Kd [2]: 0.0377 µM | Kd [3]: 0.253 µM | Kd [4]: 0.0157 µM | EC50 [5]: 0.131 µM | EC50 [6]: 0.0049 µM | Kd [7]: 0.0992 µM | Kd [8]: 0.0377 µM | EC50 [9]: 0.0085 µM

B2: cG2 (other)
chain: T1 chain
Kd [10]: 0.0143 µM | Kd [11]: 0.0388 µM | Kd [12]: 0.0414 µM | Kd [13]: 0.272 µM | Kd [14]: 0.41 µM | Kd [15]: 0.0314 µM

B3: G2.636 rat (antibody, V domains shown)
VH: EVKLVESGGGLVQPGRSLKLSCAASGFTFSRFYMAWVRQAPTKGLEWVAHISHGGDTTYYRDSVKGRFTISRDNAKSTLFLQMDSLRSEDTATYYCTTSAAPWNYVMDGWGLGASVTVSS
VL: DIVMTQSPSLLSASVGDRVTLTCKGSQNINNFLAWYQQKLGEAPKLLIYKTNSLHTGIPSRFSGSGSGTDYTLTISSLHSEDLATYYCYQYNNGYTFGAGTKLELK
Kd [16]: 0.0625 µM | Kd [17]: 0.0109 µM | EC50 [5]: 0.341 µM | EC50 [6]: 0.08 µM

B4: G2.173 Humanized 3 (antibody, V domains shown)
VH: EVQLVQSGAEVKKPGASVKVSCKASGFNIKDDYVHWVRQAPGQGLEWIGRIDPASGNTRYAPKFRGRATMTADTSISTAYMELSRLRSDDTAVYYCSPPLWVGGFAYWGQGTLVTVSS
VL: DVVMTQSPLSLPVTLGQPASISCRSSQSLVHSDVNTYLHWYQQRPGQSPRLLIYKVSNRFSGVPDRFSGSGSGTDFTLKISRVEAEDVGVYFCSQTTHVPYTFGGGTKLEIK
Kd [18]: 0.0335 µM

B5: G2.173 mouse (antibody, V domains shown)
VH: QVQLQQSGADLVRPGASVKLSCTASGFNIKDDYVHWVKQRPEQGLEWIGRIDPANGNTRYAPKFRGKATMTADTSSNTAYLQLSSLTSADTAVYYCSPPLWVGGFAYWGQGTLVTVSS
VL: B4 VL with S7T, T14S, Q17D, P18Q, Q42L, R50K, A85S, V88L, V90I
EC50 [9]: 0.0171 µM

B6: G2.302 mouse (antibody, V domains shown)
VH: QIQLQQSGPELVRPGASVKISCKASGYTFTDYYINWVKQRPGQGLEWIGWIYPGNVNVKYNEKFKGKATLTVDTSSSTGYMQLRSLTSEDSAVYFCARSIGLRYFDNWGQGTTLTVSS
VL: EKVLTQSPAIMSASLGEKVTMSCRASSSVHYMYWHQQKSDASPRLWIYYTSNLAPGVPARFSGSGSGNFYSLTISSVEDEDGATYYCQQFTTSTWTFGGGTKLEIK
Kd [18]: 0.0336 µM | EC50 [9]: 0.0185 µM

B7: G2_732 (antibody, V domains shown)
VH: VQLKESGPGLVQPSQTLSLTCTVSGLSLTSTGVSWIRQPPGKGLEWMGVIWSNGGTDYNSAIKSRLSISRDTSKSQVFLKMNSLQTEDTAMYFCARAIAPSYIMDAWGQGASVTVSS
VL: DIQMTQSPPSLSASLGDKVTITCQASQNIHKYIAWYRQKPGKPPRLLIRYTSTLQSGTPSRFSGSGSGRDYSFSISNVESEDIASYYCLQYVNLWTFGGGTKLELK
Kd [19]: 0.0148 µM | Kd [20]: 0.0062 µM

B8: G2_392 (antibody, V domains shown)
VH: B7 VH with K4V, G9D, K42R, K63R, P100A
VL: B7 VL with Q38H
Kd [19]: 0.0934 µM | Kd [20]: 0.0353 µM

B9: G2_360 (antibody, V domains shown)
VH: QVQLRESGPGLVQPSQTLSLTCTVSGLSLTSNSISWIRQPPGKGLEWMGVIWSTGGTDYNSAIKSRLSISRDTSKSQVFLKMNSLQTEDTAMYFCARAIAASAVMDAWGQGASVTVSS
VL: B7 VL with A34G, R37Q, P43A, Q55E, D70Y
Kd [19]: 0.156 µM | Kd [20]: 0.0237 µM

B10: G2_746 (antibody, V domains shown)
VH: VKLEESGPGLVLPSQTLSLSCTVSGLSLISNSISWIRQPPGKGLEWMGVMWNNGGTDYNSAIKSRLSISRDTSKSQVFLKMNSLQTEDTAMYFCARGYSSYIFDYWGQGASVTVSS
VL: B7 VL with Q3L, K31G, R37Q, K42R, P43L, Y50L, Q55E, I83L
Kd [16]: 0.0664 µM | Kd [17]: 0.0223 µM

B11: G2.748 rat (antibody, V domains shown)
VH: QVSLKESGPGMLQPSKTLSLTCSFSGFSLSTSGMVVNWIRQPSGKSLEWLAAIDWDGDKYYNPSLKHRLTVSKDTSNTQVVLKITSVDTADTATYYCARSIAPYRGWFGYWGQGTLVTVSS
VL: EIVLIQSPSSLPASLGERVTIICRASQDIGNNLNWYQQKPDGTIKPLIYFTSNFQSGVPSSFSGSRSGTDFSLTISSLEAEDFAMYYCQQDASLPWTFGGGTKLEIK
Kd [1]: 0.0005 µM | Kd [2]: 0.0005 µM | Kd [7]: 0.0005 µM | Kd [8]: 0.0005 µM

Source: patent US20230212305A1 (published 2023)
